For data set [1], the target named is TraI, relaxase/helicase of plasmid R1 (plasmid R1 (R1-16), in E. coli).
The target in data set [2] is T1, TraIN308 (relaxase domain) (Escherichia coli plasmid R1, UniProt Q6TDU5 1-308).
T1 sequence: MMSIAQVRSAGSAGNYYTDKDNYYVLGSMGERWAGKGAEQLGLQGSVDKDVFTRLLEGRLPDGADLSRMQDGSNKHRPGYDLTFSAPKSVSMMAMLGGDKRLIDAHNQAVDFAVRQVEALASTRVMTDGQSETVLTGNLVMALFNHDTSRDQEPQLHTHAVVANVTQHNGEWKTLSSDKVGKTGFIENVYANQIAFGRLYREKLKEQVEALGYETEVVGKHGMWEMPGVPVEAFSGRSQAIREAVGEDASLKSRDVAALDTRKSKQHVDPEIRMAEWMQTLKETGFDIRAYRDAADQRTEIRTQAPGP
Put plainly: fluorescence intensity titration; unit not printed with value; nM from titration range; EMSA: 10 mM Tris-HCl pH 7.5, 50 mM NaCl, 0.005% NP-40, 1 mM DTT, 1 mM EDTA, 25 C, 20 min (DNA 20 nM in Methods, 4 nM in Fig 5 legend); fluorescence: 20 mM Tris-HCl pH 7.5, 100 mM NaCl, 1 mM EDTA, 25 C, 4 nM oriT17*, 0-100 nM TraI. The following applies: protein: recombinant; label: 3'-TAMRA. In general terms: A gel shift assay detects complexes by their altered migration in electrophoresis.

Data set [3] addresses T2, TraIΔN308 (helicase domain) (Escherichia coli plasmid R1, UniProt Q6TDU5 309-1756, del1-308).
T2 sequence: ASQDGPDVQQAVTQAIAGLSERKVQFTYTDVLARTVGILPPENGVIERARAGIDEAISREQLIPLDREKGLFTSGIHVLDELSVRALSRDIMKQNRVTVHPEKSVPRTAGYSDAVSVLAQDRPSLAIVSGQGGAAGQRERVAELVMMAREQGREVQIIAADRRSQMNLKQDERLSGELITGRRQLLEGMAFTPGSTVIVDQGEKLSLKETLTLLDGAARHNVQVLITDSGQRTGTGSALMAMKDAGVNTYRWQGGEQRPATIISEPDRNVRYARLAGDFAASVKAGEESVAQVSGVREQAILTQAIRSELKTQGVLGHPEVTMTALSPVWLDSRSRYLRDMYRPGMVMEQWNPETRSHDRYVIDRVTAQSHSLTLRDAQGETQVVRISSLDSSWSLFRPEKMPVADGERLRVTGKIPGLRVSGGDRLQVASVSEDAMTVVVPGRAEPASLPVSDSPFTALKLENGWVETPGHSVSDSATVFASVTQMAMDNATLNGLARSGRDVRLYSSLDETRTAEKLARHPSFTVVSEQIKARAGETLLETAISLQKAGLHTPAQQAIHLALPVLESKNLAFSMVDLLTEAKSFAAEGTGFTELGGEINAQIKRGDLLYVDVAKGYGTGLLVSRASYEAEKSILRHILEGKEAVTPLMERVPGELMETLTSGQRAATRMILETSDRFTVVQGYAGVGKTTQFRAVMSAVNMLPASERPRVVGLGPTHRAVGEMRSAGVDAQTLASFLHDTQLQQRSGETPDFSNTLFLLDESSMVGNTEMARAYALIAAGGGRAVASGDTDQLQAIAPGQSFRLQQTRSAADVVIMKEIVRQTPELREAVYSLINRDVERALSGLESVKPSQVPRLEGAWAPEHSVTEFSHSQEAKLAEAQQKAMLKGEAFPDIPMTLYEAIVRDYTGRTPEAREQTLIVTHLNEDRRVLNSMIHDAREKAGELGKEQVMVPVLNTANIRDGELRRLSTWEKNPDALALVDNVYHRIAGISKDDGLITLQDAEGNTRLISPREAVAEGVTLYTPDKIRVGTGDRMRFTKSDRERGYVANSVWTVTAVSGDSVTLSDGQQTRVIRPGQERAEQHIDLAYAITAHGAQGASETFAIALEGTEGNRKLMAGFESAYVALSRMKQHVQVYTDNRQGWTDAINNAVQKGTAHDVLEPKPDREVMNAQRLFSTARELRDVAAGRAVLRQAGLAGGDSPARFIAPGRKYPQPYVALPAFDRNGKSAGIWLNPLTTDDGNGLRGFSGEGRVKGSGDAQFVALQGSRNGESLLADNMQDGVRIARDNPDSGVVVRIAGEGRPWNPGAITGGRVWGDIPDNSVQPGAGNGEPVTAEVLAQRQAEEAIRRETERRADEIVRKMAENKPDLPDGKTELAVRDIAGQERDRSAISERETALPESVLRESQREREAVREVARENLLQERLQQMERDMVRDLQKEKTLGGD
The data set is described as above. The following applies: protein: recombinant; label: 3'-TAMRA.

In a further data set the target is TraI (Escherichia coli plasmid R1, UniProt Q6TDU5 1-1756). The description is as above. The note with it: protein: recombinant; label: 3'-TAMRA.
For data set [4], the target named is TraD, type IV coupling protein (T4CP) of plasmid R1 (plasmid R1 (R1-16), in E. coli).
Data set [5] has as its target T3, ParR (Escherichia coli plasmid R1, UniProt P11906 1-117).
T3 sequence: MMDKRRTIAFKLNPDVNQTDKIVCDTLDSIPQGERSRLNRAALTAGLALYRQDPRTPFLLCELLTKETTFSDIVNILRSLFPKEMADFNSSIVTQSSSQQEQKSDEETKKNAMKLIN
The experiment in a line: EMSA; shift from 5:1 protein/DNA molar ratio; EMSA: 10 mM Tris-HCl pH 7.5, 50 mM NaCl, 0.005% NP-40, 1 mM DTT, 1 mM EDTA, 25 C, 20 min (DNA 20 nM in Methods, 4 nM in Fig 5 legend); fluorescence: 20 mM Tris-HCl pH 7.5, 100 mM NaCl, 1 mM EDTA, 25 C, 4 nM oriT17*, 0-100 nM TraI. The following applies: protein: recombinant; tags: none stated; chain copies: 2; label: 3'-TAMRA on strand 1; blunt.

Data set [6] deals with T3, ParR. The experiment in a line: EMSA; ParR 20-320 nM; EMSA: 10 mM Tris-HCl pH 7.5, 50 mM NaCl, 0.005% NP-40, 1 mM DTT, 1 mM EDTA, 25 C, 20 min (DNA 20 nM in Methods, 4 nM in Fig 5 legend); fluorescence: 20 mM Tris-HCl pH 7.5, 100 mM NaCl, 1 mM EDTA, 25 C, 4 nM oriT17*, 0-100 nM TraI. The following applies: protein: recombinant; tags: none stated; chain copies: 2; label: 3'-TAMRA.

Changes are numbered by the printed parent chain. Names may count otherwise.

Broadly, the Kd is the concentration at which binding is half-saturated.

“ParR with C-terminal FLAG epitope (pMS-CFLAGparR) (natural protein)” came in with a TraI (25 nM) relaxase activity on supercoiled oriT plasmid pDE100 (4 nM), percent open circular DNA, with increasing purified untagged ParR; maximum at 10 nM ParR in data set [1] of 4 fold.
In the case of TTTGCGTGGGGTGTGGT (ssDNA) [oriT17*], the Kd was 0.87 ± 0.19 nM in data set [2], 82.6 ± 13.1 nM in data set [3] and 4.05 ± 0.32 nM with TraI.

B1: CreParMK123A (Cre fused to ParM residues 2-320 with K123A) (protein)
chain: LVFIDDGSTNIKLQWQESDGTIKQHISPNSFKREWAVSFGDKKVFNYTLNGEQYSFDPISPDAVVTTNIAWQYSDVNVVAVHHALLTSGLPVSEVDIVCTLPLTEYYDRNNQPNTENIERKAANFRKKITLNGGDTFTIKDVKVMPESIPAGYEVLQELDELDSLLIIDLGGTTLDISQVMGKLSGISKIYGDSSLGVSLVTSAVKDALSLARTKGSSYLADDIIIHRKDNNYLKQRINDENKISIVTEAMNEALRKLEQRVLNTLNEFSGYTHVMVIGGGAELICDAVKKHTQIRDERFFKTNNSQYDLVNGMYLIGN
With B1, in data set [4], the translocation of CreParMK123A to recipient cells by the R1-16 T4SS (CRAfT), percent of wild type Cre-ParM (% of wild type levels) was 24.5.

B2: CreParMS39A (Cre fused to ParM residues 2-320 with S39A) (protein)
chain: B1 chain with S38A, A122K
As to B2, in data set [4], the translocation of CreParMS39A to recipient cells by the R1-16 T4SS (CRAfT), percent of wild type Cre-ParM (% of wild type levels) amounted to 59.

B3: dsparC (iterons 1 and 2) (dsDNA)
DNA 1: AAACAAAACCCAAAAACAACCC
DNA 2: GGGTTGTTTTTGGGTTTTGTTT
In the case of B3, in the data set with ParR [5], the binding result was “binds”.
AAACAAAACCCAAAAACAACCC (ssDNA) [ssparC]: the binding result with ParR [6] is reported as “no binding”.
On to ACCAAAAGCACCACACCCCACGCAAAAACAAG (ssDNA) [ssoriT], for which, in the data set with ParR [6], the binding result is listed as “no binding”.
Take CGAACGAGCAGTTGTTTCAGCG (ssDNA) [ssrnd]: the binding result with ParR [6] is given as “no binding”.

B4: ParM with C-terminal FLAG epitope (pMS-CFLAGparM) (natural protein)
chain: MLVFIDDGSTNIKLQWQESDGTIKQHISPNSFKREWAVSFGDKKVFNYTLNGEQYSFDPISPDAVVTTNIAWQYSDVNVVAVHHALLTSGLPVSEVDIVCTLPLTEYYDRNNQPNTENIERKKANFRKKITLNGGDTFTIKDVKVMPESIPAGYEVLQELDELDSLLIIDLGGTTLDISQVMGKLSGISKIYGDSSLGVSLVTSAVKDALSLARTKGSSYLADDIIIHRKDNNYLKQRINDENKISIVTEAMNEALRKLEQRVLNTLNEFSGYTHVMVIGGGAELICDAVKKHTQIRDERFFKTNNSQYDLVNGMYLIGN
As to B4, the TraI (25 nM) relaxase activity on supercoiled oriT plasmid pDE100 (4 nM), percent open circular DNA, with increasing purified untagged ParM; maximum at 20-30 nM ParM in data set [1] worked out at 3 fold.

The record behind these values is paper PMC4949242, “Conjugative DNA Transfer Is Enhanced by Plasmid R1 Partitioning Proteins”.
